A short description of the data set: label from the status in PepcDB records.
Consider “MTRVQANMLLLLAAAIWGGGFVAQSSAMSSIGPFWFVGLRFAIAAIAVLPFALMETRSLKSPPRRREIGSFILVGLALFGGATTQQVGLLTTTVTNSSFLTGLYVIFVPVIAVVLYRRHPHWVVWPCALMMLGGIFLLSGGAFETLTTGDILSIICAFFWAIQITLAGRFVSESGRPLALSFTQFAVCSLLSCMIGVVFEPISMAAIEASMMEILYVGLVSSGLAFVLQVIGQRYTTAPQAAIFLSSEALFGALMASIFLKETISSAGYVGCLIIFVAILIVELVPELTRKRQKTVAEAS”, for which the protein production entry is “failed”.
The entry for “MTRYALLVRGINVGGKNKVVMAELRQELTNLGLEKVESYINSGNIFFTSIDSKAQLVEKLETFFAVHYPFIQSFSLLSLEDFEAELENLPAWWSRDLARKDFLFYTEGLDVDQVIATVESLELKDEVLYFGKLGIF” is “failed”; for “MTSAAMATAYFDKGNQCAARCDWLGAIEAFDHCLSLNPRDWQALANRGNAKVQREDLSGALEDYLAAAALNPSSCNIKSNLAVLLKELGELDLAAALLEEVLAAEPAHVDAWSNLGIVRQHQRRYQDAIACQQNALAIAGPSVARYSNLGNAYSCALMLDAAIEVQRKGLELAPDDANLQFNQSITLLTAGRYAEAWPLYEARWRSVLRPRLTQKRWQGEALGERTLLLWSEQGLGDSLQMVRLLSCLRRAHPQARLLLACPVSFHRLFAQFDGVSLLPADALPEHDCQLPLMSLPWLLGITLDNLPTEPYLRVPGGMVPPLPAASRRRVGVVWESGLWGVGVADLGRQHKSIPAGLFAEICRVPGIEFIALQPGGVPAELSDWVRACPISDFADTAALAAQMDLVICVDTAILHLAGAMGRPVWALLRAESAPFFLADAETAPWYPSVKLWRQPAPGAWEPMLKQIAEALAGRQTF” it is “failed”; for “MTSASAPSFNPGKGPGSAVGIALLGFGTVGTEVMRLMTEYGDELAHRIGGPLEVRGIAVSDISKPREGVAPELLTEDAFALIEREDVDIVVEVIGGIEYPREVVLAALKAGKSVVTANKALVAAHSAELADAAEAANVDLYFEAAVAGAIPVVGPLRRSLAGDQIQSVMGIVNGTTNFILDAMDSTGADYADSLAEATRLGYAEADPTADVEGHDAASKAAILASIAFHTRVTADDVYCEGISNISAADIEAAQQAGHTIKLLAICEKFTNKEGKSAISARVHPTLLPVSHPLASVNKSFNAIFVEAEAAGRLMFYGNGAGGAPTASAVLGDVVGAARNKVHGGRAPGESTYANLPIADFGETTTRYHLDMDVEDRVGVLAELASLFSEQGISLRTIRQEERDDDARLIVVTHSALESDLSRTVELLKAKPVVKAINSVIRLERD” it is “failed”.
The same measure for “MTSETNIRTLVVDDSDFFAEMTADTLTQQHDIESVAANSAAEALERLEGGGFDCVVSDYEMPEMDGLELLEAIRETNPSIPFILLTGRGDEETASAAIAAGVADYLLKLEVVEDKQYGRLANRIENVVSQERTRKKFESLVSDSPDGIVHLTTNGTILSVNPSMAGRLGADPDTLVGQQLSAVMDSEAANQRLEAGKSAVENGTATRSEDAVGGRHYHNQYIPVDSHRKSDTFQLVSRDITERVERQRELERQNDRLEEFASVVSHDLRNPLNVAQGAVDLLGEPADSKEAELVAKIDRSLDRMGCIIEDVLTLARQGQTVSDPQETELSTLASTAWTWIEAEQASMSVASSTKLAADSGRAQDLLANLFRNAIEHNDGDVEIEIGLLESNDGFYIADNGEGVEGDAEDVFEMGYSSTKDGTGFGLAIVEQVAEAHGWEVSLTESDSGGARFEVSSVELHD”: “failed”; for “MTSFAQLDIKSEELAIVKTILQQLVPDYTVWAFGSRVKGKAKKYSDLDLAIISEEPLDFLARDRLKEAFSESDLPWRVDLLDWATTSEDFREIIRKVYVVIQEKEKTVEKPTAL”: “not failed”.
With “MTSHTPKFHRLAIAELRRETQDAVSMSFTIPDEIAADYTFAPGQYLTLRTTLDGEELRRSYSICSGPDDRELRIAVKKVNGGAFSGWALEQLKSGDQIEVMTPSGRFGVAHAPGESRVHVGFAAGSGITPLISIIRGILAREPNSRFFLFYGNRTTSNILFRQALQDLKDRFMARLAVFHVLSQEEQDLPILHGRLDRDRVTLLLRAMLPAQAIDHVFICGPTAMSEEIAATCAELGVPADRVHVERFVAGSGGKPRPTPVIAPQAPPAAIAALIIDGKRKEVPVAAGEAILDAALRAGIDLPYACKGGMCSTCRAKVVEGETRMDVNYSLEPWELDAGFVLTCQAHPVSDRVVIDYDAV”, the protein production entry was “failed”.
With “MTSKHFISKKEAKRIWEAMARYGIDITGESLEVAAQKSASAYYIGGKPMVFQAGDLIPSVYLLNYRNPSRNIVTVDEGAEPHILNGSDLFAPGIVSMDDSIRKGDMIFVKSSKGYFIAVGMAEMDAGEVMATKRGKAARIIHFPGDELIRAFP”, the protein production entry is “not failed”.
Take “MTSLNRPPFDFKTQYSLGFNAQDDEIVVDFFCGGGGAGTGLEMGLGRKVSVAKNHSAAAISMHTANHPGAKHFTTDVFDGDPDTECGGKAVGWFHMSPDCTHHSQAAGGQPRKREIRNLSWIGLKWAGKKKPRVVSLENVKQILQWGPLVAKRCKSTGRVVKLGGGIAAPGEVVPVDQQFLVPDPARRGQTWAVFVAELERLGYAVEWRVVRACDFGAPTSRERLFMIARCDGQSIVWPEPTHAKRPSKGQQPLKSAAECIDFSDLGKSIFERKKDLAQATLRRVAKGM”: the protein production result is “failed”.
The entry for “MTSNGQQGKPNLPEKDNLPRELGTQRINSPIARMGMFGAKTTGDTSGYGRLRVYRHVPAAAQRPYSDPSDPRTAYFDEVADALERSLKEIGTPYDTAISRVVVDRGEITFHVQREHLLDVATRLRDDPALRFELCLGVTGVHYPEDEGNELHAVYALRSITHNYEIRLEVSCPDSDPHIPSIVSVYPTNDWHEREAWDFFGIIFDGHPALTR” is “not failed”; for “MTSPSSAFPDGHGARLDAQSIRFERLLPGPIERVWAWLADADKRARWLAGGELPRQPGQTFELHFNHAALTAETAPARYAQYDRPIVARHTLLRCEPPRVLALTWGGGAGEAPSEVLFELSEAGEQVRLVLTHTRLADRAAMLDVAGGWHAHLAVLAGKLAGQAPPPFWTTLAQAEQDYEQRLLEHHHHHH” it is “not failed”.
The entry for “MTSQITANGTQRLPEPVSEHEAVPPPPPTAAGRPRPPTSQLFSRGNLASSRATGGDKSGLARPSTAVRAVGYAANCESAHQRFEQFFLEKAKQQTLSSRAAVDAIKDVNPQMKYKNLEEKIVKLLESSIVLAWQGSPNKLLNLDTKLAEALSKAKEAFSLDRTLHQFRDQHGENVYHNFDLTYAQYERSEMHIEALNTYSIMAKNKMFPHVNQLKLNMGNIYYSMGIYQKAVKMYRMALDSVPKSLSQLRLKIRENIGILFIRMGSYSDAASSFEFIMTERANIRSSIHLLLCYFALGDVEKVKLAFRRLCDVQTEAIESDMESETNIIKLQQQAEPIQQIGETDGYQSLNNEPVTGSVIKAEGGGKLNETVKFAATVKHRYVVQALKKDELAVYRNERRNAVKRSITMIVDLISPFIEDNYNDGYNWCIEIIKTSNLAWLANELELNKALVYLRQNDVHQAIETLQMYDRKSEGSMTASALTNLSFIYIKMASHCVNQLHEIGSLKNNAPGLINAGIVELGSHNLILASERFEGALQLQPMNFEARYNLGLVALAQNDYELAEERFELLKEQLMLPSSVQHSHVFYQLAKLQERRLESGLISNFTPGAALQAYLQVVGISASDIDSRLFEKVGSLYEQIQDHQEANQYYNEAYRINMSDIGIASSIGSYYIKLQATERALFYYERAVLADPNDPNLMLRIASCFRNSYLPTKQYLGLFQKIHARFPDNLTCIRALMQVTKSLELGDLYERYASEYTRLQSQQQERQSEQRYQQQRFPSAAKFTIRQSNEEHLKEVGENFNSVVHTQSPYTSILQFDPLGPPAERPKTGRPLQSRDDVDDDAEMNPESLLPI” is “failed”.
The entry for “MTSRSATATARTSSEARAVARTQTLIKGEHGIGTVRRTTLPGGLRIVTETLPSVRSATFGIWAHVGSRDETPALNGATHYLEHLLFKGTRKRSALDISSAIDAVGGEMNAFTAKEYTCYYARVLDTDLPLAIDVVCDMLTGSLIQEEDVDVERGAILEEIAMTEDDPGDCVHDLFAHTMFGDNALGRPVLGTVDTVNALTADRIRRFYRKHYDPTHLVVAAAGNVDHNKVVRQVRAAFEKSGALKDPAAQPLAPRAGRRTVRAAGRVELIGRKTEQAHVILGMPGLARTDERRWAMGVLNTALGGGMSSRLFQEVREKRGLAYSVYSYTSGFADCGLFGVYAGCRPSQVHDVLKICRDELDHVAEHGLTDDEIGRAVGQLQGSTVLGLEDTGALMNRIGKSELCWGEQMSVDDMLARIASVTPDDVRAVARDVLGRRPSLSVIGPLKDKQASRLHDAVA” is “failed”.
In the case of “MTSSPTSTQESSTSWYLLLQQLIDGESLSRSQAAELMQGWLSEAVPPELSGAILTALNFKGVSADELTGMAEVLQSQSKMGTGENYSQLPITNSPFSIIDTCGTGGDGSSTFNISTAVAFVAAAYGVPVAKHGNRSASSLTGSADVLEALGVNLGASPEKVQAALQEVGITFLFAPGWHPALKAVATLRRTLRIRTVFNLLGPLVNPLRPTGQVVGLFTPKLLTTVAQALDNLGKQKAIVLHGRERLDEAGLGDLTDLAVLSDGELQLTTINPQEVGVTPAPIGALRGGDVQENAEILKAVLQGKGTQAQQDAVALNAALALQVAGAVPLLDHAQGVSVAKEILQTGTAWAKLAQLVYFLGN”, the protein production result is “not failed”.
The entry for “MTSSRVNSLIVGGFVLILLGGIIAAATILAGKTGSTDTYFTSYDNVTGIKYGTQVLYEGYRIGQVDEIIPEQRAEGTSFRLRLAVQKGWRIPEGSQTTIATSGLLSAVAINIRGGTAEASLTPGSEIPGGASGGMFAAINDLASEVGTLSRDGLEPLVAKLNAYVDTLGGSLADNLPAILGNARITSEAIARDLPPIIARVDRFTARLDAEVLSQKNIDGLGASIGNISAFSAELNGLGRELRQTGQTLDGMVAGSAPLVDSSLRDLRYTLRALASSIDAITFNMEGASRDMKEFSRSLRQNPGVLLRGSAPAEDGR” is “failed”; for “MTSTCTICERIKLIQAHQNPYFVYELTTGYVVLADSQYFEGYTLFLAKHHVTELHHLPAHEKLRYLEEMSIVQEACAQAFHADKMNIELLGNGDAHVHWHLFPRHNGDTPNPGPVWWTPLETIYGDDVSLDIPRLSRLKRTLSVAIEATLNAREAELQALEALTRPASHRIDSN” it is “failed”.
The same measure for “MTSTETPLNSPAAAADRRRWFALAIVMTAAFMDLVDVTIVNIAIPSIQRDAGASWGQIQWITAGYALAFAAGLITGGRLGDIHGRKRLFLIGIGGFTLASALCGFAANPEMLVASRILQGGMAAMMVPQVLSIVHATFPAHERGKVFGLFGAIVGLGAVSGPLLGALLTEWNLFGLEWRPIFLINLPVGVAGLILGRRFITESKAPRALKLDLVGVALVTLGLLMLLYPLTRGRELGWPLWGHVSMAGALVVFAALVAYERRKTARDGSPLVELSLFKVKSFAAGIAVQTVFGIALGIFFLVWTLYMQMGLGWSALRAGLTGVPFSIAVSAAAGMSVQLLVPRFGRKVLQAGALLMALGVLLYIWESDRYGMAIASWQMALPLVVMGAGMGFIVAPLTDAVLSEVPREHSGSASGLINTVQQMGNALGLGLVSVVFFGEIGDRLTRAQVGPAFAHAFQHALGWVAVVLAVIFLLMFALPKRPAQHVEGAGAADTLGEKEPVLVP”: “failed”.
For “MTSTPGISDSLLSSMNGSGANNNTSAISETQDRFMKLLIAQMKNQDPLNPMDNAEVTSQMAQLSTVTGIEKMNASLSTFISSMQATQALQASSLIGNTVLVEGNSTYLAPAETEGESAAYLGVELPIGADKLTVNIKNGAGNVVKTITVTNQPAGISSLGWNGYGDDGTKLPDGRYTIEATATTGNSSVASTPLSYEQVMSVSTGSDGVKLNLSNLAAITTDQIKQIF”, the protein production result is reported as “not failed”.
